In a protein production outcome set (Wang et al. 2014):
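Further: failed if final PepcDB status was selected cloned or expressed and not failed if soluble or beyond.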

Assay: label from the status in PepcDB records
With “MWCGRNAPPRRIRRHTASKSASTAAKGGVRRACPGIVSITRPFDRTRYGSQIPPMPAISIIARTRRKDDHGRVPIRLRISHRGEKRFIALPVKVLAKKWNGDKRRVTGTHPDAGEINTFLSDLERAAFSVISRLERAGTLITAQRIKDEIQEEREEVKSAPEDFLAFAREKVKGYKRRGQIGTFRSYRTTCRKFTAFIEETYGRDEVPFGALEAELFREFRTYCYEERGNSTNTVGRELGIMRTLVRHAMKEGKLSAYPFEHITIDSEPSQKELLTPEEVERIADLEIDEESPAAEARRWFLFAYYAGGMRFSDVATLQWQHIREGRSGRPRVCYKMKKTADTVGVPLIPEAKEILCRYEEGDGEDWVFPISEGIDPGNEEALHRRKCQRNSAANRHLKELAGQAGIEKRVTFHLSRNAAAWKLYQNVGDIYKVSKFLGHSNVEQTQDYIDGFVDESRDEDFIAAMT” the protein production was “failed”. In the case of “MWDLNIKESTMTRNGKAKRPLPLAASVAMYAIAIILAAATAIGNVYANKYSDLISVYFNQPTSKVVSASNETTEHFTSDYASDDEREQALADMGTTILREGVTLLKNENGTLPLEATSKISVFGQDSVDSVYGGGGAGSIDTSKAQSLMDAFEQAGFDVNPTLTEFYTTGAGKDYRKTSTDAYGKGTFAVNEVPASAYTDDVKKSFASYNDAAIVVIGRSGSESQDLPTDKLASGYTYLQLDDDERAMLKMASDNFDKVVVLLNTQNPMELADLEDDSIDAVMWIGSLGQTGAGGVAEALNGTVNPSGHLPDTYAYDLKSAPSSANFGSYAIVNGTDRFTSSYMAYAEGIYVGYRYYETRYEDVVLGNEARSNYDYTKQVAYPFGYGLSYTDFTWSDYSMKKADGGFDISVKVTNTGKTAGKDVVQLYMQSPYTDYDKANGIEKASVELVGYAKTDTLKAGASETVTVHVDQESMKTYDSTGEGTYIMDAGDYYLAVGTDAHNALNNILAAKGKTTADGMTENGNAALAAKHTVHSQDNTTYAKSAATDEKISNQFDDVDLTTYDNSFTYLSRSDWTGSWPATYADGKWTASQKFLDALNIDTAQSEPEQKPTTDTDNPSYGKLNASMLMDADYADESWSALIGQMSVKELDQLVRIGGYATKSVSSTQLPATTDKDGPAGISSTLVGGESGMGYPSEIVIAATWNSDLAESFGKAIGEDSLALKVAVWYGPACNIHRNPYGGRAFEYFSEDSYLSGAMCAKVVAGAGSKGVVSTVKHFALNDQETNRMGGAIFANEQTIRQLYLRPFEMSVRDGGATAMMASMNRIGSRWTGGHKGLMTNTLRGEWGFNGFVVTDQASYSVFAYEDLREGLEAGTDLWLNTDAGLWKLPDDDMTDGVIANMQRAAHNISYAISRSNAMNGLSANSKIVKVTPLWRWGVYALDGVVTVGAVALIAIATLQILRRRKRDATVAAETGEPAANDGE”, the protein production is reported as “failed”. For “MWDVIVVGGGPSGLSAALFLARAGLKVLVLDGGRSKVKGVSRVPNYPGLLDEPSGEELLRRLEAHARRYGAEVRPGVVKGVRDMGGVFEVETEEGVEKAERLLLCTHKDPTLPSLLGLTRRGAYIDTDEGGRTSYPRVYAAGVARGKVPGHAIISAGDGAYVAVHLVSDLRGEPYKDHAL”, the protein production was “not failed”. For “MWEIYDAMINGIPEDFLVDELVCGTTHSVIRSGNGVGLGPNRPFETRMPMLTQNLLGLPLRVAAGCVKSWNYVEASIGLAAINAYYNNPQVAREHGVIFSDAKRVEDRMNDPFIMSQNEVKGKKVGVVGHFPHLESLLEPICDLSILEWSPEEGDYPLPASEFILPECDYVYITCASVVDKTLPRLLELSRNARRITLVGPGTPLAPVLFEHGLQELSGFMVKDNARAFRIVAGAEKVKIYSAGQKVTIKK”, the protein production was “not failed”. In the case of “MWIAVSAVNLALAVILGAFGAHGLKAYASPAKLAWWQTATDYFFYHALGLLVLGVISKTYTVLPIKSSFILIQIGILFFCGSLYLMALGLPRGFGAITPIGGAFMILGWIVLAWNAVKYAK”, the protein production is reported as “failed”. For “MWIGSVFMRKSFVISLLSAGILLAGCQAVNTTSGGAVGVERQQYMFSMLSTDEVNQMYAQSYQQTLGEASSKGVLDKSSADAKRVQAIANRLIAQAPKFRPDAAQWDWQVNVIKSDELNANCGPGGKIIVYTGLIDQLKLTDAEIAAVVGHEIAHALREHSREAMSKAYGVEMARQGAGAIFGLGQSSMAMADTVVNYAMTLPNSRANENEADLIGLELSARAGYDPNAAITLWNKMSKASEGAPPEFMSTHPASASRIASLQAAIPKVMPLYQAAAKP”, the protein production was “failed”. With “MWKHVKQVDPEIYEVLVNELKRQEYGLELIASENFASLAVIETMGSMLTNKYAEGYPKKRYYGGCEWVDRAEERAIERAKRLFGAKFANVQPHSGSQANMAVYLALAQPGDTIMGMSLSHGGHLTHGAPVNFSGKIFKVVPYGVNLETETIDYDEVRRLALEHKPKIIVAGGSAYARIIDFKRFREIADEVGAYLMVDMAHFAGLVAAGIHPNPLEYAHVVTSTTHKTLRGPRGGLILTNDPEIAKAVDKTIFPGIQGGPLMHVIAAKAVCFKEAMTEEFKEYQKQVVKNAKKMAEEFQKRGYRIVSGGTDTHLFLVDLTPKDITGKAAEKALESCGITVNKNTIPNEKRSPFVASGIRIGTPAVTTRGMKEEEMEEIAEMIDLVLSNVIDENGTVKPEVREEVSKKVRELCERFPLYRDKIEGVEI” the protein production was “not failed”. For “MWKRMTAKAEGLYIADTKSFVTKQMDKLDFDYGGIPGDLHFGLTKKAGAREPMFSRGTEIFNRRQISIVSIEECNEIALKMGVPRILPEWLGANVAVSGMPDLTSLKEGSRIIFPSGAALLCEGENDPCIQPGEVIQSYYPDQPKLASAFVRHALGIRGIVCIVERPGAVYTGDEIEVHSYQRKVKRKAERV”, the protein production was “not failed”. For “MWLSEFEIVLRDRVIPNGAVRIEDGRIAEIRDRPVAHADIDGGGRLLLPGFIDMHGDMVEREVEPRIGVHVPMRIGIAELDKKLASCGITTAYAALSFIGASVTSGVLRSEDHTTEIIDTIAGMKDHLLVDHRTHARFEVTFTPAIPTLQKLMDAGRLDLISLMDHTPGQGQYRDVELYIARIAKERGMSVAAASEVVGKRMAGREGQGNVLNALQDLSARARAAGIVLASHDDDTLEKVELVHGLGAALSEFPVTLEAAQEARRLGMHTAMGAPNALRGESYSGNLSARQAYQAGLLDMLASDYHPASILPAVLGLAELRGDGLAAAAALTSANPANALGLTDRGAVEPGLLADFVVADRYPVPRVRATFRAGRMIYGDGTLALAGKAERLGPVAAERLPAA”, the protein production was “failed”. With “MWPFRKEQERGGWLIGWNPHGLLVIVVAVVHDPRVENATAALNKLKESEGDIRATAHRKQHKDVPSATSLLILGWMHSKQATLDKSEYADAWVRSQHSRAELWLELNEGPLLHQLYCCGSPVQPCHLHVLRSDPTVSYAVTSTAFSAVARHDRGDLVKLVEGKMQPICVEGANSTLEGVLLPSHMVHSAGPRTKMRRMVGSDPLTQDEEEKQEGAKQRTEDDRVSVGSSGSGEGSTESQSVRGSETPRFGGELHPRLDFPTSTDYGELSSLLRASAYGKILRELCENKVSNATDGTAATARLCAYWKNCGNRFTGFLTKILVVFHLVLKWPGNVSYTAALLEFRLRMVIHWLLLLRGDTRVCCLHPVLPHIQHNDPALRRFCVVDFLVRFAVDTICGMLLSLLLSHGSGLLVTKAVSWCRWLLYDLHMEYMDWFEGWPAGLKMNGDLSMTLSCIAKAVLEASWASVEDLSNVGLFYKLLIFVAPLGASCAFAFVADLCLIASLHLYLVFHSVSLPYRFARFMLRNLFLQFQGKKHNPLRHRTDTYDFPVEQTLVATVIFTIIVFLLPTLAVYHVYFALICIAVWLLQGALLVAAHLTLYLPLYPLFYWALYRRQWPGGVALTGPKVLSTPQHSRALNPFARGSLTVEFGVVSKPLELRVLLADFLLVAHVVGRLHPFDMIVAVFKVRRWERTNPGKCLVPPLPADIMPLTGMTLPKTAVA” the protein production was “failed”. In the case of “MWPVVALTLFVVTFGFVLGGLVVGGKVQARPVSFLLFSGLFLFSSFFGMLVSLFTTGWFPFRLLDVVIVALCFVFIVSCFMRFHPTFGFFQFDGRANMILFAVISFFLGLQLGMLGWRTFFILFLALVFTAGLFAGGVFQVRAVMKFYSRQPSFHFLPLIWLLFATVLKLL”, the protein production is reported as “failed”. In the case of “MWSCPTLNAPRAAQKWLPVRATPHLCVLHMSRLMLSSTLIDELSYVRKDQLETSALFELIAHRYERHSIAITANEPFSGWSDAMTVAAIDRLVHHSTIIEMNGESYRKRAAVARGASTQNANDEPEDPPNRSSLEHHHHHH”, the protein production is reported as “failed”. With “MWSGVVTERKISRRLRLIKRVREEYVRDDVSCGFECCGGPCRASGKASVFAIPDANVVSRYRALLKSDYVAAIICQSVLSELSKNDERGLRDVARERGYPVFCDSFCRSTHGKGLEGVLEFYRAHLPQHNFTILDIGNIGEYGRYVSDDIRDLLENVDEKEATEYEEYVENLDILYGRKGLYRGTLEVSMYNCYSGFVVDGDVKVLVVGKKNMNRALSGDEVYVEVVDEYDEDGILLDNEEGTQETRKGAAGEGVFGKVVGIHRRKCRAVIGSISPRTVHGDGAQNVLVIPIDRRIPAIRIRTSQAEELMNKRLCVEIDGWERTSNYPSGHYYRRLGTLGDRNAEMEAVLVANGITYYNKNWAEILRVPWMNEDIFGMEKAYNEVREGTREDFRELSIVSIDPPDCEDIDDALHCRLLPNGNWEVGVHIADVTYYVTKGSEIDKIAADRGTTIYLPEWRIDMLPPALSTDLCSLVAGKDRAAFSVVWEMSSDVRVVRTHFCRSLIRSKRSFSYNEAYDAVQGLVDAGDEVSRSLRMLLEISRVLRSRRFAKGSLDLSTRQLVFREGGFEMKEYFPTNFLVEEFMVLANISVASFIYHHHPDSSLLRKHPPPSVLDIGLDIDTSSPRALSESLEKMEGVRKDLAKRMLIRSMNQAVYVVSGETPSLHHYGLATPIYTHFTSPIRRYADIIVHRILNHILQTAPTKEAQINKLGIVTFRARKRTDGESMDEVFVDEDMCRNMNSRHRAARKAAWECDKLTVYMALRNEEPVVRGFVTNIKPNGIVVYVPEYSLEEVVVSEGCFEMFQEVWVKIRRDDEKFFLRRRFTFEIVGLSSPC” the protein production was “failed”. In the case of “MWYDYRFCAYPDRTGVAAEAERHIDIHRQAYNHTRYEYNALDTDEDNIGSAYQHQKRLTEWKDEWSVFSEVHSKALQKTVERFYDNLSNLSEKKQNGHKVGWLKWKPPREYQSVTYSQSGFELKNTSGRTATLWLSKIGDIPIRYHRPIPDNATIKEVTLKKETTGEWYVTFGLEVEDTTLPEKPDVDDLDAEDCVGIDLGITNYIYTSDGDSVDWLNLSDEYERLRREQRNLSRKEHRSNNWKKQRREVAKVKRRIKRKVEDFQHKLTTWLVKTYDAVFVEDLNVSGMLQQRGNARNKQDAAWRGFINMLEYKGDLYGTHVVQVNPAGTTKECAECGVETEKPLWVREHSCPSCGFEADRDANASYNVLSRGLRELGLGQAEVTPVETATAVETDGGRSSSVPASRVIETGSLGVVRKTESSVMTRDEVPRTT”, the protein production is reported as “failed”. For “MWYSTVRNPSIALIKQGYHILAEYNLVKEELKNIYAIPSYACGLHWFGVIFVHSGIYAGSVFRFSILLPENFPADISLPTVVFSTEVLHPHICPQNKTLDLAHFLNEWRKDEHHIWHVLRYIQAIFADPEGSICTGQSSSGDLVIMDEVRNMNALNMLAKSRPEYIKRVQEQAILSRNLIYDRPPTEDPHYIIVEPYCAERHLKFMDQLKSPCWKEATSMDCSQPSEYLGHIDSSRQLDEEEANQVEKLHRGRIPEHQREESEVSL”, the protein production was “failed”. With “MYAPERQQEILRLARDGGRVDVVSLAEEFQVTAETIRRDLKALDRAGLLRRVHGGAIPAGRLDFEPDLAERESTAADEKDRIARAALAELPAEGTLILDAGSTVARMAAAIPPDASLTVVTHSLPIAARLADHPGIQLHIVGGRVRHRTRAAVDAWALRAYGEIRADVAVVAANGFSVEHGLTTPDLAEAAVKRAALTAARRVVLLADSSKYAQEHFARFGALGDVDLLITDQGLTPEDAGDIERAGTEVVRA” the protein production was “failed”. For “MYEIPWSKPVNINMLDGRCRTVVGPLDAMHCLQSEWPVRDGAYYGCAIRACNAALKRRKRPEDARAAFIAALREAFLTVVPMQEEGHGPRPLE”, the protein production was “not failed”. For “MYFVDRSKIEKTLGFFEHQLALFDSQTDWQSEIGELALQRIGHLLIECILDTGNDMIDGFIMRDPGSYDDIMDILVDEKVVTEKEGDELKKLIAYRKTLVQQYLLADSGELYRLIKAHQTALQDFPKRIRSYLETELGPVSAFK”, the protein production was “not failed”.
